Laboratory results from ChEMBL document CHEMBL2074196, “Drug absorption limited by P-glycoprotein-mediated secretory drug transport in human intestinal epithelial Caco-2 cell layers” (Pharm Res, 1993).

System: CC[C@]1(O)C[C@@H]2CN(CCc3c([nH]c4ccccc34)[C@@](C(=O)OC)(c3cc4c(cc3OC)N(C)[C@H]3[C@@](O)(C(=O)OC)[C@H](OC(C)=O)[C@]5(CC)C=CCN6CC[C@]43[C@@H]65)C2)C1
Assay: TP_TRANSPORTER: transepithelial transport (basal to apical) in Caco-2 cells
Assay type: functional, cell-based

Substance: ATP-dependent translocase ABCB1 (Homo sapiens)
- Km: 19 µM
